The source of these data is patent publication US20260242478A1 (published 2026).

The target in assay [1] is T1, 006 PSMA Fab.
T1 construct: Biotinylated and captured on neutravidin-coated plates in the phage ELISA; also called Anti-PSMA Fab
The experiment in a line: clonal phage ELISA; biotinylated PSMA Fab on neutravidin plate, anti-M13-HRP detection. On the technique in general: In an ELISA, binding on a coated surface is turned into a signal by an enzyme label.
Description: (§1) Clonal phage were harvested as crude supernatants and screened via standard ELISAs. […] Prior to the addition of clonal phage. wells were incubated with blocking buffer and PSMA antigen or blocking buffer alone. Without washing or aspirating, clonal phage supernatants were then added to the wells and incubated for a short time. Wells were then washed followed by detection of bound phage using a horse radish conjugated anti-M13 antibody.

The target in assay [2] is T1, 006 PSMA Fab. The experiment in a line: clonal phage ELISA on PSMA Fab-coated plate; competitor: PSMA antigen pre-incubated in the well.
Description: as §1
Assay [3] deals with T2, PSMA Fab (006 PSMA Fab).
T2 construct: also called Anti-PSMA Fab; anti-PSMA Fab
Description: clonal phage ELISA; biotinylated PSMA Fab on neutravidin plate pre-incubated with competitor PSMA antigen; anti-M13-HRP detection.
Description: as §1

Assay [4] addresses T2, PSMA Fab (006 PSMA Fab). Description: clonal phage ELISA; biotinylated PSMA Fab on neutravidin plate, blocking buffer alone; anti-M13-HRP detection.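 Note: clonal phage applied as crude supernatants to wells preincubated with blocking buffer, binding read by ELISA.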
Description: as §1
Assay [5] deals with T3, PSMA Fab.
T3 construct: also called Anti-PSMA Fab; 006 PSMA Fab
The experiment in a line: phage ELISA, biotinylated PSMA Fab on neutravidin plate, bound phage detected with anti-M13-HRP.
Description: as §1

Assay [6] deals with T3, PSMA Fab. The experiment in a line: phage ELISA, biotinylated PSMA Fab on neutravidin plate pre-incubated with PSMA antigen as competitor, anti-M13-HRP.
Description: as §1

With VEKWCKPEWMCTSL [Phage-2386], the “phage binding ELISA signal” value in assay [1] turned out to be 1.38. In addition, the “phage binding ELISA signal in presence of PSMA” value in assay [2] turned out to be 0.0692.
GPTLCIPAWMCSGM [Phage-2326]: in assay [3], the “Phage binding ELISA signal, Anti-PSMA Fab in presence of PSMA antigen” value (“Phage binding ELISA signal … of PSMA antigen” for short) turned out to be 0.0802. For the same molecule, the “Phage binding ELISA signal, Anti-PSMA Fab” value in assay [4] came out at 1.45.
With LGIWCIPEWMCVSA [Phage-2381], the “phage binding ELISA signal” value in assay [1] came to 1.39. For the same molecule, the “phage binding ELISA signal in presence of PSMA” value in assay [2] turned out to be 0.0793.
As for DGKWCIPPWMCAMA [Phage-2375], in assay [1], the “phage binding ELISA signal” value was found to be 1.4. The “phage binding ELISA signal in presence of PSMA” value in assay [2] was found to be 0.0859.
For TIKWCTPPWMCIMN [Phage-2388], the “phage binding ELISA signal” value in assay [1] is 1.38. For the same molecule, the “phage binding ELISA signal in presence of PSMA” value in assay [2] was found to be 0.103.
For the molecule VSNWCIPRGLCTQM [Phage-2320], in assay [3], the “Phage binding ELISA signal … of PSMA antigen” value was found to be 0.0665. Moreover, in assay [4], the “Phage binding ELISA signal, Anti-PSMA Fab” value was determined as 1.45.
As to VQKWCIPPWMCQIS [Phage-2380], in assay [1], the “phage binding ELISA signal” value is 1.39. In addition, the “phage binding ELISA signal in presence of PSMA” value in assay [2] came to 0.0907.
In the case of VMKWCTPEWMCQVF [Phage-2402], the “Phage binding ELISA signal, Anti-PSMA Fab” value in assay [5] worked out at 1.37. Also, the “Phage binding ELISA signal, Anti-PSMA Fab with PSMA antigen” value in assay [6] stood at 0.0622.
As to LERWCIPDWMCEWP [Phage-2394], the “Phage binding ELISA signal, Anti-PSMA Fab” value in assay [5] was determined as 1.37. Also, the “Phage binding ELISA signal, Anti-PSMA Fab with PSMA antigen” value in assay [6] was 0.078.
Regarding MQHWCVPPWMCQSL [Phage-2401], the “Phage binding ELISA signal, Anti-PSMA Fab” value in assay [5] turned out to be 1.37. Besides, the “Phage binding ELISA signal, Anti-PSMA Fab with PSMA antigen” value in assay [6] amounted to 0.082.
Turning to LEKWCTPVWMCEGV [Phage-2318], the “Phage binding ELISA signal … of PSMA antigen” value in assay [3] is 0.0702. Besides, in assay [4], the “Phage binding ELISA signal, Anti-PSMA Fab” value came to 1.46.
Regarding WEKWCTPAWMCAVA [Phage-2399], the “Phage binding ELISA signal, Anti-PSMA Fab” value in assay [5] is 1.37. Further, in assay [6], the “Phage binding ELISA signal, Anti-PSMA Fab with PSMA antigen” value came to 0.0716.
Consider VFHLCMPPWMCSQD [Phage-2390], for which the “Phage binding ELISA signal, Anti-PSMA Fab” value in assay [5] was found to be 1.38. Further, the “Phage binding ELISA signal, Anti-PSMA Fab with PSMA antigen” value in assay [6] was found to be 0.0997.
In the case of FGISCTPSWMCEGF [Phage-2398], the “Phage binding ELISA signal, Anti-PSMA Fab” value in assay [5] was 1.37. The “Phage binding ELISA signal, Anti-PSMA Fab with PSMA antigen” value in assay [6] was found to be 0.0988.
For FEHWCTPPWMCFSS [Phage-2383], in assay [1], the “phage binding ELISA signal” value is 1.38. For the same molecule, the “phage binding ELISA signal in presence of PSMA” value in assay [2] turned out to be 0.0713.
For the molecule VVKWCTPAWMCELQ [Phage-2397], in assay [5], the “Phage binding ELISA signal, Anti-PSMA Fab” value was 1.37. Moreover, the “Phage binding ELISA signal, Anti-PSMA Fab with PSMA antigen” value in assay [6] was found to be 0.0757.
Regarding MEQWCIPQWMCSGF [Phage-2317], the “Phage binding ELISA signal … of PSMA antigen” value in assay [3] was determined as 0.0911. Also, in assay [4], the “Phage binding ELISA signal, Anti-PSMA Fab” value worked out at 1.46.
As to SDNWCKPKWMCETI [Phage-2319], the “Phage binding ELISA signal … of PSMA antigen” value in assay [3] worked out at 0.116. In assay [4], the “Phage binding ELISA signal, Anti-PSMA Fab” value was 1.45.
Regarding VDKWCIPAWMCVSA [Phage-2328], in assay [3], the “Phage binding ELISA signal … of PSMA antigen” value turned out to be 0.0715. Moreover, in assay [4], the “Phage binding ELISA signal, Anti-PSMA Fab” value was 1.45.
Take GEKWCIPTWMCDWT [Phage-2373]: the “phage binding ELISA signal” value in assay [1] was 1.4. Also, the “phage binding ELISA signal in presence of PSMA” value in assay [2] was found to be 0.0544.
On the same counts, the results for IPKWCTPVWMCAGF [Phage-2385] are 1.38 and 0.0806.
Consider HSHWCIPPWMCTFV [Phage-2324], for which the “Phage binding ELISA signal … of PSMA antigen” value in assay [3] turned out to be 0.162. Moreover, in assay [4], the “Phage binding ELISA signal, Anti-PSMA Fab” value was found to be 1.45.
Take LEKWCIPTWMCEMT [Phage-2322]: the “Phage binding ELISA signal … of PSMA antigen” value in assay [3] is 0.0679. Moreover, the “Phage binding ELISA signal, Anti-PSMA Fab” value in assay [4] worked out at 1.45.
Consider MGNWCIPEWMCWGT [Phage-2374], for which the “phage binding ELISA signal” value in assay [1] came to 1.4. The “phage binding ELISA signal in presence of PSMA” value in assay [2] was 0.0727.
WVKWCTPPWMCEWD [Phage-2389]: the “Phage binding ELISA signal, Anti-PSMA Fab” value in assay [5] worked out at 1.38. Further, the “Phage binding ELISA signal, Anti-PSMA Fab with PSMA antigen” value in assay [6] was determined as 0.123.
As for PDKWCIPQWMCDIT [Phage-2376], the “phage binding ELISA signal” value in assay [1] came to 1.39. Further, the “phage binding ELISA signal in presence of PSMA” value in assay [2] worked out at 0.0617.
Turning to LEKWCRPAWMCNGM [Phage-2393], the “Phage binding ELISA signal, Anti-PSMA Fab” value in assay [5] was 1.38. For the same molecule, the “Phage binding ELISA signal, Anti-PSMA Fab with PSMA antigen” value in assay [6] was 0.0594.
Taken in the same sequence, the figures for DVRWCTPPWMCVAM [Phage-2400] were 1.37 and 0.078.
As for SPKWCTPSWMCELQ [Phage-2392], in assay [5], the “Phage binding ELISA signal, Anti-PSMA Fab” value stood at 1.38. Also, in assay [6], the “Phage binding ELISA signal, Anti-PSMA Fab with PSMA antigen” value stood at 0.06.
Taken in the same sequence, the figures for ASMWCIPPWMCAED [Phage-2395] were 1.37 and 0.085.
Consider EVKWCIPEWMCMVV [Phage-2396], for which the “Phage binding ELISA signal, Anti-PSMA Fab” value in assay [5] amounted to 1.37. For the same molecule, the “Phage binding ELISA signal, Anti-PSMA Fab with PSMA antigen” value in assay [6] stood at 0.0647.
Take DAKWCIPDWMCYGF [Phage-2387]: in assay [1], the “phage binding ELISA signal” value turned out to be 1.38. In addition, the “phage binding ELISA signal in presence of PSMA” value in assay [2] is 0.0838.
Regarding LHKWCTPAWMCEVP [Phage-2379], in assay [1], the “phage binding ELISA signal” value is 1.39. Besides, the “phage binding ELISA signal in presence of PSMA” value in assay [2] is 0.0904.
Turning to FPKWCTPSWMCDFV [Phage-2391], the “Phage binding ELISA signal, Anti-PSMA Fab” value in assay [5] worked out at 1.38. The “Phage binding ELISA signal, Anti-PSMA Fab with PSMA antigen” value in assay [6] came out at 0.0984.
On to VEKLCIPHWMCEAS [Phage-2325], for which the “Phage binding ELISA signal … of PSMA antigen” value in assay [3] amounted to 0.0647. Further, the “Phage binding ELISA signal, Anti-PSMA Fab” value in assay [4] amounted to 1.45.
As for SVHWCTPPWMCQGF [Phage-2327], the “Phage binding ELISA signal … of PSMA antigen” value in assay [3] came to 0.0771. Further, the “Phage binding ELISA signal, Anti-PSMA Fab” value in assay [4] turned out to be 1.45.
Take HDKLCIPLWMCDGV [Phage-2377]: in assay [1], the “phage binding ELISA signal” value is 1.39. Besides, the “phage binding ELISA signal in presence of PSMA” value in assay [2] stood at 0.0834.
With WDHWCTPAWMCFNA [Phage-2323], the “Phage binding ELISA signal … of PSMA antigen” value in assay [3] amounted to 0.119. Moreover, the “Phage binding ELISA signal, Anti-PSMA Fab” value in assay [4] came out at 1.45.
For FYKWCTPEWMCTVN [Phage-2384], the “phage binding ELISA signal” value in assay [1] stood at 1.38. For the same molecule, the “phage binding ELISA signal in presence of PSMA” value in assay [2] was 0.138.
As to LDKWCIPPWMCETV [Phage-2321], the “Phage binding ELISA signal … of PSMA antigen” value in assay [3] came to 0.0597. The “Phage binding ELISA signal, Anti-PSMA Fab” value in assay [4] is 1.45.
With VVKWCIPTWMCQTL [Phage-2378], the “phage binding ELISA signal” value in assay [1] was determined as 1.39. For the same molecule, the “phage binding ELISA signal in presence of PSMA” value in assay [2] stood at 0.101.
Consider DFMRCTPEWMCTGF [Phage-2382], for which the “phage binding ELISA signal” value in assay [1] is 1.39. In assay [2], the “phage binding ELISA signal in presence of PSMA” value was 0.0663.
